Experimental findings from paper PMC11578589 are described below.

The test system of series [1] is IGF2BP2 KH34 (IGF2BP2KH34) (Homo sapiens). Description: MST. The conditions noted are these: MST: 50 mM phosphate pH 7.0, 150 mM NaCl, 0.05% Tween 20, room temperature, 20 min incubation, 250 nM labeled RNA.
The test system of series [2] is IGF2BP2 RRM (IGF2BP2RRM) (Homo sapiens). Description: MST. The note with it: MST: 50 mM phosphate pH 7.0, 150 mM NaCl, 0.05% Tween 20, room temperature, 20 min incubation, 250 nM labeled RNA.

ZIKV 5' NTR returned a Kd in series [1] of 203 nM.
Regarding ZIKV 3' NTR, the Kd was 418 nM in series [1] and 1600 nM in series [2].

As a reminder, the Kd is a measure of binding affinity in units of concentration. A lower Kd goes with tighter binding.
